T1: biotin-tagged DnaA (bio-DnaA) (Escherichia coli, UniProt P03004 1-467, biotin (biotin-tagged))
T1 construct: DnaA, chromosomal replication initiator of Escherichia coli; also called bio-DnaA (Full); source: purified, as reported (Ishida et al., 2004)
T1 sequence (looked up): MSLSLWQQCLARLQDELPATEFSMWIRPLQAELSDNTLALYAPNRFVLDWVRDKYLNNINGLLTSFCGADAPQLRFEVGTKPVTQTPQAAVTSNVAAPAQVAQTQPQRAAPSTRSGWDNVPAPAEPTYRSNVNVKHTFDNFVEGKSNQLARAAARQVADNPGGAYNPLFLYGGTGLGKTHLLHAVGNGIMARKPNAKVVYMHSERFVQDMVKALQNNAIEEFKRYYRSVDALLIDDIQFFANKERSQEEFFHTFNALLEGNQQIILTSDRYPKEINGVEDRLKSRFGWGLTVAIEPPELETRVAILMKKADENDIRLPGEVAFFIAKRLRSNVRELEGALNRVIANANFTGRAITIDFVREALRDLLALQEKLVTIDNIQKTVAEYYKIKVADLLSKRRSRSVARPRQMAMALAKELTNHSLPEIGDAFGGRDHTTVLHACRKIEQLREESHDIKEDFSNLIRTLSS

B1: DnaA (native, wild-type) (natural protein, Escherichia coli, UniProt P03004 1-467, looked up)
chain: T1 sequence (looked up)
notes: DnaA, chromosomal replication initiator of Escherichia coli; called native, intact, wild-type DnaA; Untagged; In the bio-oriC pull-downs it stood as DnaA complexes (multimers) formed on a biotin-tagged oriC DNA fragment; also called native DnaA; wild-type DnaA (WT); source: purified
B2: His-tagged YfdR (His-YfdR) (natural protein, Escherichia coli, UniProt P76514 1-178, looked up)
chain: MSFIKTFSGKHFYYDKINKDDIVINDIAVSLSNICRFAGHLSHFYSVAQHAVLCSQLVPQEFAFEALMHDATEAYCQDIPAPLKRLLPDYKRMEEKIDAVIREKYGLPPVMSTPVKYADLIMLATERRDLGLDDGSFWPVLEGIPATEMFNVIPLAPGHAYGMFMERFNDLSELRKCA
notes: YfdR of the cryptic prophage CPS-53 of Escherichia coli; amplified from pSSP with a forward primer that begins at the ATG of yfdR (nogu10) and nogu11, cloned NheI-EcoRI into pBAD/HisB; also called purified YfdR; source: E. coli MC1061 carrying pYfdR (pBAD/HisB), arabinose-induced, purified (Ni-NTA agarose)
B3: DiaA (natural protein, Escherichia coli, UniProt P66817 1-196, looked up)
chain: MQERIKACFTESIQTQIAAAEALPDAISRAAMTLVQSLLNGNKILCCGNGTSAANAQHFAASMINRFETERPSLPAIALNTDNVVLTAIANDRLHDEVYAKQVRALGHAGDVLLAISTRGNSRDIVKAVEAAVTRDMTIVALTGYDGGELAGLLGPQDVEIRIPSHRSARIQEMHMLTVNCLCDLIDNTLFPHQDD
notes: results and legends say only DiaA; also called His-DiaA; purified DiaA; source: purified

Legend:
Settings in all cases: both partners purified
DnaB-DnaC complex = molecular target: T2, DnaB-DnaC complex (Escherichia coli, UniProt P0ACB0 1-471; P0AEF0 1-245); experiment: pull-down; DnaA (7.5 pmol) and bio-oriC (100 fmol) with DnaB-DnaC complex (7.5 pmol each) 5 min on ice, then His-YfdR for 10 min; streptavidin beads; SDS-12% PAGE, silver staining
T2 construct: DnaB replicative helicase of Escherichia coli (homohexamer); DnaC helicase loader of Escherichia coli; Formed beforehand from 7.5 pmol DnaB (as monomer) and 7.5 pmol DnaC; also called DnaB-DnaC complexes; source: DnaB and DnaC co-incubated on ice; copies: 6 +
T2 sequence (P0ACB0 whole entry, chain 1 of 2): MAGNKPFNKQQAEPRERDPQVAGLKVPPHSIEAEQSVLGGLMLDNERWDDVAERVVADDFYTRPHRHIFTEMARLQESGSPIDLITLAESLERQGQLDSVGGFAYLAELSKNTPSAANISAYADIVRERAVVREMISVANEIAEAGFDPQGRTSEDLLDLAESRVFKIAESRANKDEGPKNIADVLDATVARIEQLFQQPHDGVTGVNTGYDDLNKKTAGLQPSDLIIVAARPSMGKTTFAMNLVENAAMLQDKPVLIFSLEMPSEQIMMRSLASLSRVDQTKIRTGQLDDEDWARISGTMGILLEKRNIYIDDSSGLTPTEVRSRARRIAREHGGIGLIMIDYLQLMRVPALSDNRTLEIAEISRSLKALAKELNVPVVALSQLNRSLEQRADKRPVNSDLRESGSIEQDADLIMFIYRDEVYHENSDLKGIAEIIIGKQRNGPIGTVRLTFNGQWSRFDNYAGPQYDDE
T2 sequence (P0AEF0 whole entry, chain 2 of 2): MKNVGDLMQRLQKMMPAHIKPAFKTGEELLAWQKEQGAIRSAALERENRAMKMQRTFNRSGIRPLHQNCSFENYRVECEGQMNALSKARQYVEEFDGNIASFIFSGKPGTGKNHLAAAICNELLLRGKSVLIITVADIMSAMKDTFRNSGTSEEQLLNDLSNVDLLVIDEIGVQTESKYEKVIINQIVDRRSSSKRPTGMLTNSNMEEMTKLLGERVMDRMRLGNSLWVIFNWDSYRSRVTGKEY

[1] = molecular target: T1, biotin-tagged DnaA (bio-DnaA); experiment: pull-down; DiaA (10 pmol as monomer) with bio-DnaA (5 pmol) 5 min on ice, then purified His-YfdR for 10 min; streptavidin beads; SDS-PAGE, silver staining
DnaA (native, wild-type) [2] = molecular target: B1; experiment: pull-down; His-YfdR (10 pmol) with native DnaA or DnaA F46A in buffer R with 20 mM imidazole (20 uL; 2 mM ATP), on ice; Co2+ magnetic beads (Dynabeads); wash with 100 mM KCl and 50 mM imidazole; SDS-13% PAGE, silver staining; bead-bound DnaA subtracted
DnaA (native, wild-type) [3] = molecular target: B1; experiment: pull-down; DnaA (7.5 pmol) and bio-oriC (100 fmol) with His-DiaA (10 pmol as monomer) 5 min on ice, then His-YfdR for 10 min; streptavidin beads; SDS-15% PAGE, silver staining
[4] = molecular target: T1, biotin-tagged DnaA (bio-DnaA); experiment: pull-down; bio-DnaA (5 pmol) first incubated with purified DiaA (10 pmol), then with protein extracts of cells carrying pQRST or pBAD18; streptavidin beads; SDS-PAGE, silver staining

B1: binds (DnaB-DnaC complex).

B2: binds [1]; binds (DnaA (native, wild-type) [2]).

B3: binds (DnaA (native, wild-type) [3]); binds [4].

Source: article PMC4776307, “The Escherichia coli Cryptic Prophage Protein YfdR Binds to DnaA and Initiation of Chromosomal Replication Is Inhibited by Overexpression of the Gene Cluster yfdQ-yfdR-yfdS-yfdT” (Frontiers in Microbiology, 2016)
